How the values were obtained:
[1] = molecular target: T1, N-terminal His-tagged DnaK (His-DnaK) (E. coli, UniProt P0A6Y8 1-638); assay: SPR; BIAcore T200; CsgA peptides immobilised on a CM7 chip by EDC/NHS coupling; DnaK 50–1000 nM as analyte, single-cycle kinetics; 25 °C; HBS-DM buffer (10 mM HEPES pH 7.4, 150 mM NaCl, 5 mM MgCl2, 1% dimethylsulfoxide); 30 μL min^−1; fit with a 1:1 binding mode; settings: both partners purified
T1 construct: also called DnaKWT; bacterial Hsp70; source: E. coli BL21 (DE3), from pDnaKWT (ASKA clone), purified (TALON, Mono Q, Superdex G-200); not shown: His tag, N-terminal, kept

[2] = molecular target: T1, N-terminal His-tagged DnaK (His-DnaK); assay: peptide or protein array; CelluSpot array of cellulose-bound peptides on glass slides (8-residue peptides overlapping by seven); 50 nM His-DnaK in DB buffer (25 mM Tris-HCl pH 7.5, 150 mM NaCl, 10 mM KCl, 0.05% Tween 20, 5% sucrose) overnight at 4 °C; detected with HRP-conjugated anti-His antibody; settings: both partners purified

T1 sequence (P0A6Y8 whole entry): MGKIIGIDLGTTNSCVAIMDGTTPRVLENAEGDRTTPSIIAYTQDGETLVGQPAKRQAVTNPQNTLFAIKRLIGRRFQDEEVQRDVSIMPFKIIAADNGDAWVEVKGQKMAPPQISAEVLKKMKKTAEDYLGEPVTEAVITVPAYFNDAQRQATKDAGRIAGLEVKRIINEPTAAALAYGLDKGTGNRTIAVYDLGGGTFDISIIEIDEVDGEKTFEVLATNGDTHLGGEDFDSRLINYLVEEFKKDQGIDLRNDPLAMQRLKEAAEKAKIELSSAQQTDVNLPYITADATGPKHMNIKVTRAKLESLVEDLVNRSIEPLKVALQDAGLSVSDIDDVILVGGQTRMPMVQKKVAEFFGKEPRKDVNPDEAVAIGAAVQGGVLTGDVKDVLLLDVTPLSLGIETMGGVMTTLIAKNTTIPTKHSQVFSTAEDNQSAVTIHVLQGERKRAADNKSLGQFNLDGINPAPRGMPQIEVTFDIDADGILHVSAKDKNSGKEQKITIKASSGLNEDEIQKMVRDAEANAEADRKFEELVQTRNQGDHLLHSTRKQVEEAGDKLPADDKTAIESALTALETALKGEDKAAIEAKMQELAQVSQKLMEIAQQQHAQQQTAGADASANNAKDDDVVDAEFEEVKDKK

B1: CsgA_(2–20) (signal peptide of CsgA without the N-terminal Met) (peptide)
peptide: KLLKVAAIAAIVFSGSALA
notes: also called CsgA signal peptide; source: synthetic peptide (Eurofins Genomics, HPLC >95%)
- Kd [1]: 0.00219 µM
- koff [1]: 0.000256 s⁻¹
- kon [1]: 117000 M⁻¹ s⁻¹

B2: N-terminal 8-amino acid peptide of CsgA (NH2-KLLKVAAI-COOH) (peptide)
peptide: H-KLLKVAAI-OH
notes: source: synthetic peptide, CelluSpot peptide array (Intavis Bioanalytical Instruments)
- binding result [2]: binds

B3: N-terminal 8-amino acid peptide of CsgB (NH2-KNKLLFMM-COOH) (peptide)
peptide: H-KNKLLFMM-OH
notes: as for B2
- binding result [2]: binds

B4: CsgA_(133–151) (R5, the most amyloidogenic of the five repeats) (peptide)
peptide: SSVNVTQVGFGNNATAHQY
notes: source: synthetic peptide (Eurofins Genomics, HPLC >95%)
- Kd [1]: 0.0207 µM
- koff [1]: 9.77e-05 s⁻¹
- kon [1]: 4720 M⁻¹ s⁻¹

Reference: PMC6123696, “Multitasking of Hsp70 chaperone in the biogenesis of bacterial functional amyloids” (Communications Biology, 2018)
